Data taken from patent US20250180582A1 (XIAMEN INNOBIOMAX BIOTECHNOLOGY, published 2025).

T1: pET-32a-GPR37-1-613 full-length antigen (human, UniProt O15354 27-613)
T1 construct: Expressed in Escherichia coli from pET-32a and purified; also called Antigen 1; not shown: fusion partner/tags encoded by the pET-32a vector
T1 sequence: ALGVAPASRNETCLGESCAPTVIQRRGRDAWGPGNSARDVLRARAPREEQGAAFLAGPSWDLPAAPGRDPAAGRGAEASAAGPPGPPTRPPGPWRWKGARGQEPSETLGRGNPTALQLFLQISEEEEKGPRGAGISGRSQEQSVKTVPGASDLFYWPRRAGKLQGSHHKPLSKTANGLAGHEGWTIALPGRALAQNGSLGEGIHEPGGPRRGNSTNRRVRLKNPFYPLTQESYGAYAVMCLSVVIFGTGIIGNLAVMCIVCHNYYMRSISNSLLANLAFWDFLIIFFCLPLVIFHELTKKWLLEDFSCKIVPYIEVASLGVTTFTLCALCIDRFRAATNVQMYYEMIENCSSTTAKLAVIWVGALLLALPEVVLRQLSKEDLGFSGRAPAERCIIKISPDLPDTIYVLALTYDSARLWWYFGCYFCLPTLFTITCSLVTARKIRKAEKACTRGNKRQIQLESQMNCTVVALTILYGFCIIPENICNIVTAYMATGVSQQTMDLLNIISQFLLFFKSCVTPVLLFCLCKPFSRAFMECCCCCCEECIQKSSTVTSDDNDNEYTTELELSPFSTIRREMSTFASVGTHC

T2: pCold-TF-GPR37-1-613 full-length antigen (human, UniProt O15354 27-613)
T2 construct: Target fragment of Antigen 1 moved into the pCold-TF expression vector; also called Antigen 2; not shown: TF fusion partner encoded by the pCold-TF vector
T2 sequence: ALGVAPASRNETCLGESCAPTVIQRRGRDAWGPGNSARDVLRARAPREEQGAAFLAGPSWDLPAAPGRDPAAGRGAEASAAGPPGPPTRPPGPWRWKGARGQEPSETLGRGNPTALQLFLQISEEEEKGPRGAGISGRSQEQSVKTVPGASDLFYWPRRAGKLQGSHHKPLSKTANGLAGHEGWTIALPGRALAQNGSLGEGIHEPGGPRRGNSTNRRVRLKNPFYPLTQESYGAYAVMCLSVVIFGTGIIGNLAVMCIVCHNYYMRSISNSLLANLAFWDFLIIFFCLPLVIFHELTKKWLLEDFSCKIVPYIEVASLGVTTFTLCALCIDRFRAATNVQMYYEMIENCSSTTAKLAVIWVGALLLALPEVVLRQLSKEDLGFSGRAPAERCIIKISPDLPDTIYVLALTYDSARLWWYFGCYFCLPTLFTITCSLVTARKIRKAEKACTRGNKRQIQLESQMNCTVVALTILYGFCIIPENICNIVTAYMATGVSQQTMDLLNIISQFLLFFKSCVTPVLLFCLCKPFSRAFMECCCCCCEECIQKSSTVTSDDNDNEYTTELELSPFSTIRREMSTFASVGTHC

T3: pCold-TF-GPR37-1-265 extracellular segment protein (human, UniProt O15354 27-265)
T3 construct: also called Antigen 3; not shown: TF fusion partner encoded by the pCold-TF vector
T3 sequence: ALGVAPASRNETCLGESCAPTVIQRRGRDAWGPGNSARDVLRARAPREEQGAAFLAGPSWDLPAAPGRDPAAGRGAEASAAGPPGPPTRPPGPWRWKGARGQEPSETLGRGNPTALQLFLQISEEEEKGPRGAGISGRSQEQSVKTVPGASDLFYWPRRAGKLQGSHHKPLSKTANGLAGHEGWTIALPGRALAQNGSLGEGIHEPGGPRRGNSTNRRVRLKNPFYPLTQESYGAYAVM


What was measured:
Assay in all cases: indirect ELISA, cell supernatant, antigen coated 200 ng/mL
[1] = target: T1, pET-32a-GPR37-1-613 full-length antigen
Description: (§1) 3.6 Screening of hybridomas: Antigen 1 was used for primary screening, and two antigens that were also fused to pET-32a were used as accessory means for differential screening, in which both antigens were from Inbermax (Catalog No.: E11024, Catalog No.: E1212), and the self-made recombinant Antigen 2 and Antigen 3 were used at the same for identification. The screening method was an indirect ELISA, and its specific steps comprised: the plate was coated with the antigen at 200 ng/mL, 100 ul per well, added with 50 μL of cell supernatant, incubated at 37° C. for 30 minutes, washed 5 times with a plate washer, added with 100 ul of GAM-HRP prepared at 1:5K, incubated at 37° C. for 30 minutes, washed 5 times with a plate washer, added with a chromogenic solution at 100 ul/well, incubated at 37° C. for 15 minutes, added with a stop solution to terminated the reaction, and placed in a microplate reader to read signal values using dual wavelengths. Based on the experimental results, the cells in the corresponding positive wells were selected for the next step work.
(§2) 3.7 Cloning of hybridoma cells: Using the limiting dilution method, the cells were first diluted in gradient at certain concentrations, and then inoculated into each well of a 96-well cell culture plate, so that only one cell grew in the well as much as possible. The hybridoma monoclonal positive cell line was repeatedly cloned at least 3 times, and were confirmed as a stable clone after the final round was 100% positive. The positive standards were as described in 3.6.

[2] = target: T4, antigen fused to pET-32a from Inbermax, Catalog No.: E11024
T4 construct: Used for differential screening against the pET-32a fusion part
Description: as §1, §2

[3] = target: T5, antigen fused to pET-32a from Inbermax, Catalog No.: E1212
T5 construct: Used for differential screening against the pET-32a fusion part
Description: as §1, §2

[4] = target: T2, pCold-TF-GPR37-1-613 full-length antigen
Description: as §1, §2

[5] = target: T3, pCold-TF-GPR37-1-265 extracellular …
Description: as §1, §2

ELISA signal [1] [OD]	ELISA signal [2] [OD]	ELISA signal [3] [OD]	ELISA signal [4] [OD]	ELISA signal [5] [OD]	Binder
3.37	0.009	0.01	2.81	3.54	monoclonal antibody 6D2 (antibody, IgG2a, V domains shown, Mouse hybridoma antibody; also called mAb 6D2) VH: EVMLVESGGGLVKPGGSLKLSCAASGFIFSSQAMSWVRQIPEKRLEWVATISSGGSYTYYPDSVKGRFTISRDNAKNTLYLQMSSLTSEDTAMYYCARQRDFGRYYGYDPFFDFWGQGTTLTF VL: EIVLTQSPTTMAASPGEKITITCSASSSISSNYLHWYQQKPGFSPKLLIYRTSNLPSGVPARFSGSGSGTSYSLTIGTMEAEDVATYYCQQGSSVPRITFGAGTKLE
2.83	0.008	0.011	6.24	3.37	monoclonal antibody 5A2 (antibody, IgG2a, V domains shown, Mouse hybridoma antibody; also called mAb 5A2; 5A2-HRP) VH: EVKLVESGGGLVQPGGSLRLSCATSGFIFSDYYMSWVRQPPGKALEWLGYIRNKAKRYTTEYNASVKGRFTISRDNSQNILYLQMNTLRAEDSATYYCARDTSDYDRFAYWGQGTLVTVSA VL: DIVMTQTPLSLPVSLGDHASLSCKSSQSLVHRNGNTYLHWFLQKPGQSPKLLIYKVSNRFSGVPDRFSGSGSGTDFTLKISRVEAADLGVYFCSQSTLLPYTFGGGTKLEIK
